Data reported in patent publication US20230272069A1 (INSTITUTE OF HEMATOLOGY AND BLOOD DISEASES HOSPITAL CHINESE …, published 2023).

T1: CD19 antigen molecule (human, UniProt P15391 20-556)
T1 sequence (looked up): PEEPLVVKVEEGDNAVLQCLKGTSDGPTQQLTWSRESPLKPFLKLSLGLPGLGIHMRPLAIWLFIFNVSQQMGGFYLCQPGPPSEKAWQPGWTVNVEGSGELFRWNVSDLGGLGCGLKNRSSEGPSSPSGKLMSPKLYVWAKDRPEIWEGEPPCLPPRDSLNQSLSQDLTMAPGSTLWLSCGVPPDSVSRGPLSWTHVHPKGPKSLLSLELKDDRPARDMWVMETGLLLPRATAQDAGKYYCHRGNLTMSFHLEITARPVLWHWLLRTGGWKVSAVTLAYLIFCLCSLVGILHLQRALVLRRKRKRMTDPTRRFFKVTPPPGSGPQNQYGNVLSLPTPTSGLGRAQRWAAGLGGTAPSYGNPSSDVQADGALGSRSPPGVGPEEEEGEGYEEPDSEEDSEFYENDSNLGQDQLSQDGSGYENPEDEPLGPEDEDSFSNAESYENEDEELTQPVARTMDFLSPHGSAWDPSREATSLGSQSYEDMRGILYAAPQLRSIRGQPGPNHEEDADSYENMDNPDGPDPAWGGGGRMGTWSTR

T2: CD22 antigen molecule (human, UniProt P20273 20-847)
T2 sequence (looked up): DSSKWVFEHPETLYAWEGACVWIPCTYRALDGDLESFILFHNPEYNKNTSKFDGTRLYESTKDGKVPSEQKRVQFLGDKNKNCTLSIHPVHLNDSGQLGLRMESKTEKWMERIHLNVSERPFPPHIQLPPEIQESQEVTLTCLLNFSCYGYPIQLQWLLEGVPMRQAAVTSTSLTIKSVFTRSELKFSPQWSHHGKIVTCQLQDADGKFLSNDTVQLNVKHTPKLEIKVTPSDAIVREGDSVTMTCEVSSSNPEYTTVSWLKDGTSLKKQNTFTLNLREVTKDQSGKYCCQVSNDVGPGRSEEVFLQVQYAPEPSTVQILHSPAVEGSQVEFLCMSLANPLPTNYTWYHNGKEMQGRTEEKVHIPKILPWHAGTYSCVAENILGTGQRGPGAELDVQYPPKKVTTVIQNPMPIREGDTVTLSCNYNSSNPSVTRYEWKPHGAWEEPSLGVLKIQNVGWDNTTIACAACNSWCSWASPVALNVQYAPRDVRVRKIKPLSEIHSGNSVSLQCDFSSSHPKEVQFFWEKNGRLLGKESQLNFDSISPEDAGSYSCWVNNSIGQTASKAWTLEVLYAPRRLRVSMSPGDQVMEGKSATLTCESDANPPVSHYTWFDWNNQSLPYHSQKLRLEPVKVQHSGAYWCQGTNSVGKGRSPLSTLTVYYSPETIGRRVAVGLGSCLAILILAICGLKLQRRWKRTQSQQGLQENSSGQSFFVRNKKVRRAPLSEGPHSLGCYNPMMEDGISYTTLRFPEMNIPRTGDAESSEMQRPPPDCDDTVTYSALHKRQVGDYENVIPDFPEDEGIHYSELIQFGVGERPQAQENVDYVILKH


Tests used:
CD19 antigen molecule = target: T1, CD19 antigen molecule; test: cell-based or functional assay
CD22 antigen molecule = target: T2, CD22 antigen molecule; test: cell-based or functional assay

degranulation level (CD107a on GFP+ cells) after co-culture with MV4-11-CD19 cells, E:T 1:1, 4 h (CD19 antigen molecule)	degranulation level (CD107a on GFP+ cells) after co-culture with MV4-11-CD22 cells, E:T 1:1, 4 h (CD22 antigen molecule)	Binder
≥ 25%	≥ 15%	CD22 scFv-CD19 scFv-CD8α-4-1BB-CD3ζ CAR (other) DIELTQSPSSLAVSVGEKVTMSCKSSQSLLYSSNQKNYLAWYQQKPGQSPKLLIYWASTRESGVPDRFTGSGSGTDFTLTVSSVKAEDLAVYYCQQSYSYPFTFGSGTKLEIKRGGGGSGGGGSGGGGSQVKLQQSGPELVKPGASVKISCKASGYDFSISWMNWVRQRPGQGLEWIGRIYPGDGDSNYNGKFEGKATLTADKSSSTAYMQLSGLTSVDSAVYFCARTTTMIALYAMDYWGQGTTVTVSSEAAAKEAAAKEAAAKEAAAKEAAAKDIVLTQSPKFMSTSVGDRVSVTCKASQNVGTNVAWYQQKPGQSPKPLIYSATYRNSGVPDRFTGSGSGTDFTLTITNVQSKDLADYFCQQYNRYPYTSGGGTKLEIKRGGGGSGGGGSGGGGSQVQLQQSGAELVRPGSSVKISCKASGYAFSSYWMNWVKQRPGQGLEWIGQIYPGDGDTNYNGKFKGQATLTADKSSSTAYMQLSGLTSEDSAVYFCARKTISSVVDFYFDYWGQGTTLTVSSEFTTTPAPRPPTPAPTIASQPLSLRPEACRPAAGGAVHTRGLDFACDIYIWAPLAGTCGVLLLSLVITLYKRGRKKLLYIFKQPFMRPVQTTQEEDGCSCRFPEEEEGGCELRVKFSRSADAPAYQQGQNQLYNELNLGRREEYDVLDKRRGRDPEMGGKPRRKNPQEGLYNELQKDKMAEAYSEIGMKGERRRGKGHDGLYQGLSTATKDTYDALHMQALPPR
≥ 25%	≥ 15%	CD19 VL-CD22 VL-CD22 VH-CD19 VH-CD8α-4-1BB-CD3ζ CAR (other) DIVLTQSPKFMSTSVGDRVSVTCKASQNVGTNVAWYQQKPGQSPKPLIYSATYRNSGVPDRFTGSGSGTDFTLTITNVQSKDLADYFCQQYNRYPYTSGGGTKLEIKRGGGGSDIELTQSPSSLAVSVGEKVTMSCKSSQSLLYSSNQKNYLAWYQQKPGQSPKLLIYWASTRESGVPDRFTGSGSGTDFTLTVSSVKAEDLAVYYCQQSYSYPFTFGSGTKLEIKRGSTSGSGKPGSGEGSTKGQVKLQQSGPELVKPGASVKISCKASGYDFSISWMNWVRQRPGQGLEWIGRIYPGDGDSNYNGKFEGKATLTADKSSSTAYMQLSGLTSVDSAVYFCARTTTMIALYAMDYWGQGTTVTVSSGGGGSQVQLQQSGAELVRPGSSVKISCKASGYAFSSYWMNWVKQRPGQGLEWIGQIYPGDGDTNYNGKFKGQATLTADKSSSTAYMQLSGLTSEDSAVYFCARKTISSVVDFYFDYWGQGTTLTVSSEFTTTPAPRPPTPAPTIASQPLSLRPEACRPAAGGAVHTRGLDFACDIYIWAPLAGTCGVLLLSLVITLYKRGRKKLLYIFKQPFMRPVQTTQEEDGCSCRFPEEEEGGCELRVKFSRSADAPAYQQGQNQLYNELNLGRREEYDVLDKRRGRDPEMGGKPRRKNPQEGLYNELQKDKMAEAYSEIGMKGERRRGKGHDGLYQGLSTATKDTYDALHMQALPPR
